Source: article PMC11674972
“And” between values parts separate entries of the source, which are not always exact repeats. Equal values may be shown once.

Experiments:
[1] = target: FcγRI (Biotinylated Human CD64 Protein, His, Avitag) (human) (UniProt P12314); assay: SPR; Biacore T200; biotinylated FcγRI immobilised on streptavidin chip SA (target 200 RU); AVT 1.875-30 nM injected 60 s at 50 uL/min; 1x HBS-EP pH 7.4, 22 °C; double referenced; heterogeneous ligand kinetics model
[2] = target: FcγRI (Biotinylated Human CD64 Protein, His, Avitag) (human) (UniProt P12314); assay: SPR; Biacore T200; biotinylated FcγRI immobilised on streptavidin chip SA; AVT 1.875-30 nM; 1x HBS-EP pH 7.4, 22 °C; double referenced; steady-state affinity algorithm
[3] = target: FcγRI (Biotinylated Human CD64 Protein, His, Avitag) (human) (UniProt P12314); assay: SPR; Biacore T200; biotinylated FcγRI immobilised on streptavidin chip SA; AVT 1.875-30 nM; 1x HBS-EP pH 7.4, 22 °C; 1:1 Langmuir binding model (fit poorer than the heterogeneous ligand model)

UniProt P12314, sequence (P12314 16-292): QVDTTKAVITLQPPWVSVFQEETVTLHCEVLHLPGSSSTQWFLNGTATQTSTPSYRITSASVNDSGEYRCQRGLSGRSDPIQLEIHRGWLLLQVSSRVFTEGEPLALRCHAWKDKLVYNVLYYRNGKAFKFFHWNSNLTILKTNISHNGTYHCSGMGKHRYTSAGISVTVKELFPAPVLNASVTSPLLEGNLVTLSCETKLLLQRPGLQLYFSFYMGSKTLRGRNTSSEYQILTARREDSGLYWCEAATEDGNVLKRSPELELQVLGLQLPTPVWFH

KD, set 1 (heterogeneous ligand model) [1]: 2.67 pM and 1.55 pM and 2.59 pM | KD, set 1 (heterogeneous ligand model), mean [1]: 2.27 pM | ka, set 1 (heterogeneous ligand model) [1]: 333000 M⁻¹ s⁻¹ and 276000 M⁻¹ s⁻¹ and 335000 M⁻¹ s⁻¹ | ka, set 1 (heterogeneous ligand model), mean [1]: 315000 M⁻¹ s⁻¹ | kd, set 1 (heterogeneous ligand model) [1]: 8.9e-07 s⁻¹ and 4.27e-07 s⁻¹ and 8.67e-07 s⁻¹ | kd, set 1 (heterogeneous ligand model), mean [1]: 7.28e-07 s⁻¹ | Kd [2]: 13500 pM | Kd [3]: 420 pM
Substance: Bevacizumab (Avastin) (antibody)
